# Assay: soluble fraction after stress (log2 fold change); higher = more stays soluble; pooled small domains, quantitative proteomics
# Settings: stress: 50 degC
# In short: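 Pooled custom libraries of small protein domains were each held under stress at 50°C. The read-out, high-throughput quantitative proteomics, tracked how much of each protein stayed soluble. This is reported as a base-two log fold change used to indicate aggregation propensity. Higher values mean more protein remains in solution.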
row,Sequence,soluble fraction (log2)
1,HMFDDEELDTFAGRQSDSYDQQEVEQFSDVLHTMRQDEVQAWWRSLTLRGISLPDELKDEVIML,-0.538
2,HMREVGVPNLRGLTAEEAQIVLSNAGLNLRTEPIRRVHETITVGRIAEQDPMPDLTIRSQRSVTTWLSSGP,0.317
3,HMSEQVQLQAQVEDDLIGKRLDQVVAQLFPDYSRSRLQGWIKDGSLTVDGESRRPRDKMMGGEVVRVEATL,0.0984
4,HMLPQGKGTAMWLADHLAAASVTLDAGARKLLEDTLGEDMSRLPGVLRVLEATFGSDAGRLSAEDIEPFL,0.31
5,HMTVTLTTLRNGSTGAQVKTLQRLLSAMDYYNGETDGKFGISTAAAVKAFQRAKRLTVDGIVGKNTWTALL,-1.18
6,HMNRPQDLGEPYDGQFREHPEAWAFYAAQSPSYRRSASWWVLGAKQEVTRQRRLAALIDASAQGTRIPALT,-1.09
7,HMFFAGLSPEAARTLDSLPLHSWSSVEQIARQAGLNIETVRKELGLLELSGIALSRQGRFRRA,-0.549
8,HMSTDNINYKNILIASLLIHAAKIDENYTENEKNIIKKALIELDEIDSKKADEIMILAEKKE,-0.221
9,HMEYYWHQLKGLEVVNTRGESLGRVRRLLETGANDVLVLEGEQERLIPYVPDTIKQVDLAKGLIEVAWDRD,-0.0728
10,HMDQAEDVLSIPVDALMRGNQVYIKDDTVTEQQGPIPAGFKAVEVETGLISDSYVEIKSGLSEGDTVYVAE,0.141
11,HMSADKAEAAEASLKSFNLRLQAAAMEAGKTFAPVTADQYAEYKAAWGTYIRKGIEGLSESEKKTINVG,-0.03
12,HMEISPGDVFKQLPGIGDDLSRRVVESLGIQSLEELESAAHDGRLEQVEGFGERRVQMVRAVLTGMLS,-0.0423
13,HMFPNQLLISRLSNQLSASERFAAVSSIAQLKNIDYDVLHVLVHTMNSDPNSNVRLAALEALSR,-0.529
14,HMNLSSETLSEMEARIGQMGVVELQDRRAYLLQEQEGTQNPSRLKEIADELSAIQKALVALV,0.1
15,HMSDAIQLEQKIGLEAIEWYLALSEQTDDKLLYQQWQSWLAADPQHQLAWSRIEQVNHGLNTL,-0.706
16,HMAQFNELLFELRQDRKMTQEDLAKVLFVTSGTISNYENGVHLPDIEKLISLADFFGVTTDYLLG,-0.104
17,HMTSPRRLYALIVEHVGKDGVMHRSDVENVLAKVESEMDVDDLLDQLEINGTIIRRQDGTWQLL,-0.197
18,HMTTIAQMTGPQRAAVILLVLGEDHGRTIWQEFDDDEIRIITRAMAELGTVDADEVERLMLDFVGKLSS,-2.58
19,HMQDLEIKINLGMTYYEVREAIGSPDIIDKINQYGRDFQMWTYYIDDKTKRYYFEDHLLTKI,-3.33
20,HMGAVDIATARQLISEIGLPIMLKAEGGGGGRGIFAIHNEAELEDAFFKASTMAQASFGNPRLFVEKF,-0.228
21,HMLTNNYKNDKALRFAKNHGIHESNILKLVSLYENAPEKGFNAQSIAELLGITPRSASRILVKLLQHNLIR,-1.42
22,HMDVEMLIDKYQLNDSEAEVLRFMKKNRQSLKTIGIRDVAKATYVSTATIINMAKKIGYSGYSELVFALGN,-0.0472
23,HMSSEASALRGWLQTSQYQGSVTLFANALNVPLKTVEDWVYGRSKPSLQHWSQLYEATGLPEYQQ,-0.18
24,HMTAGTGIAYSEFRSKVQEGQVKDVAIAPDRITGTLSSGQKFSTVPVNDPGLPKMLDDFNVKYSGQA,0.104
25,HMTVVIKVQASQLESWKSSAGTEIKAKLIAVEDEKTYLFVTETGKTIRATAAQLDESSVSRARKLAGL,-1.03

row,Sequence,soluble fraction (log2)
1,HMEITTEDIAAQVASWIVRLSEDLTSTDRAALQIEFEQWQQTDSRRAEIAHKMLSLIGQAEQLRKT,-0.207
2,HMDAYSYFIRTYPLVDDPLIGDIRRIFAETHDGNPAGDADVRHILWRLLFERELYPTLDEATADWY,-2.54
3,HMIEGETPEQTMERVSKDPEIVQILQDPVMQGILAQARENPAALQDHMKNPEVYKKINMLIAAGVIRT,0.0669
4,HMNKNQGVTTTNLNFRKSASTSSLVLYTIPKNTTLDILDKLPSGWYKVKYKGLTGYVSGSYV,-1.37
5,HMKSTELSIIEALRVLGLKHGASQDSIKKSYRRLVKQHHPDLGGSADSFRKVNEAYQLLIMN,-0.425
6,HMDLEELSNKMNNVFESLSSDLRDIIIMSDIEGLSYEEISHKINIPIGTVRSRLHRARDLMVRVIKEN,-0.513
7,HMDYAQAQRQAESAIALRPDVERLRLLLIYALQKQGKLREAEQAAADAIKSGLDTPALRQARANLRP,-0.264
8,HMEKINLIIEEDNNLRLDKVIAMQLQELSRTQIQDMINQGLVLVNQKKEKASYKTKLNDEIEITILD,-1.37
9,HMSPLALLTPRELDILRAMTAGASNKEIARQFAIAETTVKIHVQHILRKLDVTTRVHAAVMASESGL,-2.66
10,HMDDTRLLSEIGLSQRVLNALRARGIERVGQVLAMRPDQLLGIRNFGPRALQELRERLQENGYTEGPLFSG,0.309
11,HMRTNVDISPKILEWVLSQVRNRTTNDVIETIQIWIKGEKPPTFNQVEKISKATGVPLGYFFLKTPPVED,-0.805
12,HMKDTNENLMKMLALLIHAAKIDENYSDEEKELIVNFAEMSSKENLNREQILSIIKSAEEYE,-0.702
13,HMMQEIKLEVINNEELRIDNYINLAGIGLSRSYIQKLIKDGVILVNGKEVKSSYKVSLGDIISVQIPDPG,0.299
14,HMYAHTPEMEAMNELGLEPPVTLDEIKKTYKTLVKKYHPDHNKEDPEAEEKLKKVNMAYTILKVAYTEFEK,-0.147
15,HMEDDIRSSIRTLDQFISKNQITLSKDVKNYILQLLSNDRMVTINELEKIKIYYDSNENIDLDTVKILLN,-0.754
16,HMRLSAADLQSYLKGMDYPASRQDLIAHARGHNAPEEAVATLEQFSDRTYRSAADVSVEFGRE,0.25
17,HMFPELTDDEQLIVSTLAKTNDMQINMLAVRTGIPVQRMSALLFSLEMKGVVKMYAGGTYHLL,-1.05
18,HMVAMYLRVGISNGRRYLSIVQGYRDQVTKKVRHNTVKSLGYLDDLEKHYPDPIAHFKAVVEEMNKKQALE,-0.847
19,HMEIDFDKINSIFNDANKLYEEGDYFEANNLYKNIVSSNIISKDLYYNLGLSYAKIGSNGYAILWYERALN,-0.189
20,HMEEEVKVPKIKGLTEAEAKAKLKSEGLESGTARSAYSDTVEEGHIISQSIQEGTKVPKGTAVSYEVSKGK,0.17
21,HMLVDWNYLEGKRGVTTTPLTPSGKARFGDDVVNVLSDGVLVSTGTPVRVLQVLGNRVLVEPLDG,0.0957
22,HMHQAVTVTKPARLFTGPDGKGVVRSLDVGMMLYPTGEKQGMMWEVEDELGNKGWVSSTLLELS,0.207
23,HMDKPIFTLRENEVLYWASMGKTYAEIATIVGISVRTVKFHMGNVVSKLGVSNARQAIRLGVELDLITPMQ,-2
24,HMTDDALIGKTAQVTVAIKPGSVGQITARVGDERVERLARASADAEIAAGSLVTIKSIAGDSVIVAPE,0.144
25,HMGALTGQERRAEIMNILRQSTMPLSGAALGKQLGVSRQVVVQDIALLRQSGEEIYATNRGYVTG,-0.129

# Reference: the domain aggregation screens of Martell et al. (2025)
